The values below come from patent publication US20250026815A1 (GAN AND LEE PHARMACEUTICALS, published 2025).

Read-outs that look alike come from different tables or passages of the source.

The target in test [1] is RSV-F protein of RSV A Long virus (as carried by the live virus in the neutralisation assay) (human respiratory syncytial virus, …, UniProt P12568 26-574). As to the kind of experiment: cell-based or functional assay.
Test [2] concerns the target RSV-F protein of RSV A2 virus (as carried by the live virus in the neutralisation assay) (human respiratory syncytial virus, …, UniProt P03420 26-574). As to the kind of experiment: cell-based or functional assay.
For test [3], the target named is RSV-F protein of RSV B9320 virus (as carried by the live virus in the neutralisation assay) (human respiratory syncytial virus, …). As to the kind of experiment: cell-based or functional assay.
Test [4] addresses T1, recombinant RSV-F protein (RSV A2 strain fusion (F) protein with added His tag) (human respiratory syncytial virus, A2 …, UniProt P03420 26-524).
T1 construct: also called RSV-F recombinant protein
As to the kind of experiment: SPR (Biacore), antibody captured, RSV-F as analyte. (SPR reads the build-up and loss of mass on a sensor chip optically.)

The target in test [5] is T1, recombinant RSV-F protein (RSV A2 …). As to the kind of experiment: SPR (Biacore), antibody captured, RSV-F as analyte; column head prints nM, Kd/Ka gives M.
Test [6] shares this target. As to the kind of experiment: SPR (Biacore), antibody captured, RSV-F as analyte. This is another data set of the same source.

Sequence of RSV-F protein of RSV A2 virus (as carried by the live virus in the neutralisation assay) (P03420 26-574): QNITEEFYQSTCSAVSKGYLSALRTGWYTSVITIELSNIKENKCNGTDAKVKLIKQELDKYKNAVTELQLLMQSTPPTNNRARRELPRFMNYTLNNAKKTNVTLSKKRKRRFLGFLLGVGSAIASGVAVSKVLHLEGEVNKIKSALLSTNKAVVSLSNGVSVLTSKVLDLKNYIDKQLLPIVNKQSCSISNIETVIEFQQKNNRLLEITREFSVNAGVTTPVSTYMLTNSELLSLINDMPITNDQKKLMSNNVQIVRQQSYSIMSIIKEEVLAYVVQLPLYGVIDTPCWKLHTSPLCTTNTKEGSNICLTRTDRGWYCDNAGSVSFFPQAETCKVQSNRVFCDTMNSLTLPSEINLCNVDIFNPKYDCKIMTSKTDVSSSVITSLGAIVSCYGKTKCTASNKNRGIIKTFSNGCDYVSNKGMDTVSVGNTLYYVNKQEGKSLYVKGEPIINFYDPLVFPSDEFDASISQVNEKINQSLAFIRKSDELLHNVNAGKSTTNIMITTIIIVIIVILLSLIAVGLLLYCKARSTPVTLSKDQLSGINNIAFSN
T1 sequence (P03420 26-109, chain 1 of 2): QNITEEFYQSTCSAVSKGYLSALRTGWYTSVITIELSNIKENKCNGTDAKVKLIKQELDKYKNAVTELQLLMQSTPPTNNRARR
T1 sequence (P03420 137-524, chain 2 of 2): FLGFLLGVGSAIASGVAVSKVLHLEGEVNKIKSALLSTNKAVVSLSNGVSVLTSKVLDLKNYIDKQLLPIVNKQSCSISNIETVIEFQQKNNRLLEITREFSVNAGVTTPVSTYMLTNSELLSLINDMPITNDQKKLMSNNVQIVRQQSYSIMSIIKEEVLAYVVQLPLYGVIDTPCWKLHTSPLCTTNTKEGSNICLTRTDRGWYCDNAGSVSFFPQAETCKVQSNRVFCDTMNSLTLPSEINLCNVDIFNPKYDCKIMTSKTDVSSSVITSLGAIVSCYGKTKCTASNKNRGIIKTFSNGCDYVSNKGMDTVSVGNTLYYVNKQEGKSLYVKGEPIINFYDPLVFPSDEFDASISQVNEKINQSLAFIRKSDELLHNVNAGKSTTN

B1: R10-10B2QH (antibody, human IgG1, kappa, V domains shown)
VH: QVQLEESGAELVRSGASVKLSCTASGFNIKDYYIHWVKQRPEQGLEWIGWNDPENGDTEYAPKFQGKATMTADTSSNTVYLQLSSLTSEDSAVYFCKSFDSYLEYWGQGTSVTVSS
VL: DIVMTQTTLSLPVNLGDQASISCRSSQSLVHTDGNTFLEWYLQRPGQSPKLLIYKVSIRFSGVPDRFSGSGSGTDFTLKISRVETEDLGVYYCFQGSHVPRTFGGGTKLEIKR
notes: also called chimeric antibody of R10-10B2
A word on the Kd: it is the free concentration of one partner at which half of the binding sites on the other are occupied at equilibrium, for simple one-to-one binding. What is called koff is the first-order rate constant of dissociation. By kon is commonly meant the second-order rate constant of association. Turning to B1, the “Absolute IC50, neutralizing RSV A Long (HEp-2 cells, indirect ELISA)” value (“Absolute IC50, neutralizing RSV A Long” below) in test [1] is 0.214 mg/L. Also, the “Absolute IC50, neutralizing RSV A2 (HEp-2 cells, indirect ELISA)” value (“Absolute IC50, neutralizing RSV A2” for short) in test [2] is 0.0968 mg/L. Moreover, the “Absolute IC50, neutralizing RSV B9320 (HEp-2 cells, indirect ELISA)” value (shortened to “Absolute IC50, neutralizing RSV B9320”) in test [3] amounted to 0.0915 mg/L. Further, in test [4], the Kd worked out at 0.0489 nM, the koff was 3.68e-05 s⁻¹ and the kon turned out to be 753000 M⁻¹ s⁻¹.

B2: R3-16A10QH (antibody, human IgG1, kappa, V domains shown)
VH: EVKLEESGPELVKPGASVKISCKTSGYAFSDSWMNWVKQRPGQGLEWIGRIYPGDGDTQYNGKVKGKATLTADKSSSTAYMQVSSLTSVDSAVYFCAREGGMITSSGYYHALDYWGQGTSVTVSS
VL: DIVMTQSPASLAVSLGQRTTISCRASESVDSYGNSFLNWYQQKPGQPPKVLIYLASNLESGVPARFSGSGSRTDFTLIIDPVEADDAATYYCQQNNEDPTFGGGTKLEIKR
notes: also called chimeric antibody of R3-16A10
For B2, the “Absolute IC50, neutralizing RSV A Long” value in test [1] is 0.0258 mg/L. Besides, the “Absolute IC50, neutralizing RSV A2” value in test [2] came out at 0.0118 mg/L. In test [3], the “Absolute IC50, neutralizing RSV B9320” value came out at 0.0726 mg/L. In addition, in test [4], the koff worked out at 2.69e-05 s⁻¹ and the kon was found to be 537000 M⁻¹ s⁻¹.

B3: R3-38B6QH (antibody, human IgG1, kappa, V domains shown)
VH: QVQLEESGPELVKPGASVKISCKASGYAFSSSWMNWVKQRPGQGLEWIGRIYPGDGDTQYHGKVKGKATLTADKSSSTAYMQVSSLTSVDSAVYFCAREGGMITSNGYYHALDYWGQGTSVTVSS
VL: DIVMTQTTASLAVSQGQRATISCSASESVDSYGNSFMNWYQQKPGQPPKVLIYLASNLESGVPARFSGSGSRTDFTLTIDPVEADDAATYYCQQNNEDPTFGGGTKLEIKR
notes: also called chimeric antibody of R3-38B6
Turning to B3, in test [1], the “Absolute IC50, neutralizing RSV A Long” value amounted to 0.0733 mg/L. The “Absolute IC50, neutralizing RSV A2” value in test [2] was found to be 0.0176 mg/L. Moreover, in test [4], the Kd was 0.061 nM, the koff was 3.02e-05 s⁻¹ and the kon worked out at 495000 M⁻¹ s⁻¹.

B4: A2-G (antibody, human IgG1, kappa, V domains shown)
VH: QVTLKESGPALVKPTQTLTLTCTFSGFSLSTSGMGVSWIRQPPGKALEWLAHIYWDDDKNFNPSLRSRLTITKDPSKNQVVLTMTNMDPVDTATYFCARKLYNDYDYILDYWGQGTTVTVSS
VL: DIVMTQSPLSLPVTPGEPASISCRSSKSLLHSNGITYLGWFLQKPGQSPQLLIYQMSNLASGVPDRFSGSGSGTDFTLKISRVEAEDVGVYYCAQNLELWTFGQGTRLEIKR
notes: also called humanized mutant antibody A2-G
With B4, the Kd in test [5] came to 0.07 nM. Further, in test [6], the koff came to 0.000138 s⁻¹ and the kon was determined as 1.97e+06 M⁻¹ s⁻¹.

B5: A2-I (antibody, V domains shown)
VH: QVTLKESGPALVKPTQTLTLTCTFSGFSLSTSGMGVSWIRQPPGKALEWLAHIYWDDDKNFNPSLRSRLTITKDPSKNQVVLTMTNMDPVDTATYFCARKLYNDYDYILDYWGQGTTVTVSS
VL: DIVMTQSPLSLPVTPGEPASISCRSSKSLLHSNGITYLIWFLQKPGQSPQLLIYQMSNLASGVPDRFSGSGSGTDFTLKISRVEAEDVGVYYCAQNLELWTFGQGTRLEIK
notes: also called humanized mutant antibody A2-I
Turning to B5, the Kd in test [5] was 0.0528 nM. In test [6], the koff turned out to be 0.000162 s⁻¹ and the kon was 3.07e+06 M⁻¹ s⁻¹.

B6: A2-P (antibody, V domains shown)
VH: QVTLKESGPALVKPTQTLTLTCTFSGFSLSTSGMGVSWIRQPPGKALEWLAHIYWDDDKNFNPSLRSRLTITKDPSKNQVVLTMTNMDPVDTATYFCARKLYNDYDYILDYWGQGTTVTVSS
VL: DIVMTQSPLSLPVTPGEPASISCRSSKSLLHSNGITYLPWFLQKPGQSPQLLIYQMSNLASGVPDRFSGSGSGTDFTLKISRVEAEDVGVYYCAQNLELWTFGQGTRLEIK
notes: also called humanized mutant antibody A2-P
With B6, the Kd in test [5] came to 0.0438 nM. In addition, in test [6], the koff turned out to be 0.000156 s⁻¹ and the kon worked out at 3.57e+06 M⁻¹ s⁻¹.

B7: A2-A (antibody, human IgG1, kappa, V domains shown)
VH: QVTLKESGPALVKPTQTLTLTCTFSGFSLSTSGMGVSWIRQPPGKALEWLAHIYWDDDKNFNPSLRSRLTITKDPSKNQVVLTMTNMDPVDTATYFCARKLYNDYDYILDYWGQGTTVTVSS
VL: DIVMTQSPLSLPVTPGEPASISCRSSKSLLHSNGITYLAWFLQKPGQSPQLLIYQMSNLASGVPDRFSGSGSGTDFTLKISRVEAEDVGVYYCAQNLELWTFGQGTRLEIKR
notes: also called humanized mutant antibody A2-A
B7: the Kd in test [5] was determined as 0.0509 nM. In addition, in test [6], the koff came out at 0.000117 s⁻¹ and the kon turned out to be 2.3e+06 M⁻¹ s⁻¹.

B8: A2-M (antibody, V domains shown)
VH: QVTLKESGPALVKPTQTLTLTCTFSGFSLSTSGMGVSWIRQPPGKALEWLAHIYWDDDKNFNPSLRSRLTITKDPSKNQVVLTMTNMDPVDTATYFCARKLYNDYDYILDYWGQGTTVTVSS
VL: DIVMTQSPLSLPVTPGEPASISCRSSKSLLHSNGITYLMWFLQKPGQSPQLLIYQMSNLASGVPDRFSGSGSGTDFTLKISRVEAEDVGVYYCAQNLELWTFGQGTRLEIK
notes: also called humanized mutant antibody A2-M
Turning to B8, the Kd in test [5] is 0.0597 nM. In test [6], the koff came to 0.000138 s⁻¹ and the kon stood at 2.31e+06 M⁻¹ s⁻¹.

B9: A2-N (antibody, V domains shown)
VH: QVTLKESGPALVKPTQTLTLTCTFSGFSLSTSGMGVSWIRQPPGKALEWLAHIYWDDDKNFNPSLRSRLTITKDPSKNQVVLTMTNMDPVDTATYFCARKLYNDYDYILDYWGQGTTVTVSS
VL: DIVMTQSPLSLPVTPGEPASISCRSSKSLLHSNGITYLNWFLQKPGQSPQLLIYQMSNLASGVPDRFSGSGSGTDFTLKISRVEAEDVGVYYCAQNLELWTFGQGTRLEIK
notes: also called humanized mutant antibody A2-N
In the case of B9, the Kd in test [5] was found to be 0.102 nM. Moreover, in test [6], the koff was determined as 0.000165 s⁻¹ and the kon is 1.61e+06 M⁻¹ s⁻¹.

B10: A2-Q (antibody, V domains shown)
VH: QVTLKESGPALVKPTQTLTLTCTFSGFSLSTSGMGVSWIRQPPGKALEWLAHIYWDDDKNFNPSLRSRLTITKDPSKNQVVLTMTNMDPVDTATYFCARKLYNDYDYILDYWGQGTTVTVSS
VL: DIVMTQSPLSLPVTPGEPASISCRSSKSLLHSNGITYLQWFLQKPGQSPQLLIYQMSNLASGVPDRFSGSGSGTDFTLKISRVEAEDVGVYYCAQNLELWTFGQGTRLEIK
notes: also called humanized mutant antibody A2-Q
In the case of B10, the Kd in test [5] came out at 0.0698 nM. Moreover, in test [6], the koff was determined as 0.000166 s⁻¹ and the kon came to 2.38e+06 M⁻¹ s⁻¹.

B11: R18-11B1QH (antibody, human IgG1, kappa, V domains shown)
VH: EVQLEESGPELVKPGASVKISCKSSAQTFSGSWINWVKQRPGQGLEWIGRIFPGDGDTKYNMNFTGKATLTADKSSNTAYMHVSSLTSVDSAVYFCARYDGYYDIGYFDVWGAGTTVTVSS
VL: DIVMTQTPASLAVSLGQRATISCRASASVDSYGNKFIHWYQQKPGQPPKLLISLASNLESGVPARFSGSGSRTDFTLTIDPVEADDAATYYCQQTNEDPWTFGGGTKLEIKR
notes: also called chimeric antibody of R18-11B1
Consider B11, for which the “Absolute IC50, neutralizing RSV A Long” value in test [1] is 0.0432 mg/L. In test [2], the “Absolute IC50, neutralizing RSV A2” value amounted to 0.101 mg/L. In addition, in test [4], the Kd was 0.205 nM, the koff turned out to be 0.000169 s⁻¹ and the kon was found to be 824000 M⁻¹ s⁻¹.

B12: R3-39A3QH (antibody, human IgG1, kappa, V domains shown)
VH: QVKLEESGPELVKPGASVKISCKASGYAFSSSWVNWVQQRPGQGLEWIGRIYPGDGETKYSGKFRGKATLTADKSSNTVYMQVSSLTSVDSAVYFCAREGGLITSSGYYHAMDYWGQGTSVTVSS
VL: DIVLTQSPPSLAVSLGQRATISCRASKSVDSYGNGFMHWYQQKPGQPPKLLIFLASNLESGVPARFSGSGSRTDFTLTIDPVEADDAASYYCQQSDEDPTFGGGTKLEIKR
notes: also called chimeric antibody of R3-39A3
As for B12, in test [2], the “Absolute IC50, neutralizing RSV A2” value is 0.00592 mg/L. In test [4], the Kd is 0.171 nM, the koff was 0.000115 s⁻¹ and the kon was determined as 673000 M⁻¹ s⁻¹.

B13: R18-22D7QH (antibody, human IgG1, kappa, V domains shown)
VH: EVKLLESGGGLVQPGGSLKLSCAASGFDFSRYWMSWVRQAPGKGLEWIGEINPDSSTINYTPSLKDKFIISRDNAKNTLYLQMSKVRSEDTALYYCARRGGISYAMDYWGQGTSVTVSS
VL: DIVITQDELSNPVTSGESVSISCRSSKSLLYKDGKTYLNWFLQRPGQSPQLLIYLMSTRASGVSDRFSGSGSGTDFTLEISRVKAEDVGVYYCQQLVEYPRTFGGGTKLEIKR
notes: also called chimeric antibody of R18-22D7
As for B13, the “Absolute IC50, neutralizing RSV A Long” value in test [1] came out at 0.0683 mg/L. Also, in test [2], the “Absolute IC50, neutralizing RSV A2” value is 0.03 mg/L. For the same molecule, the “Absolute IC50, neutralizing RSV B9320” value in test [3] stood at 0.00893 mg/L. In test [4], the Kd was 3.54 nM, the koff was determined as 0.00127 s⁻¹ and the kon is 357000 M⁻¹ s⁻¹.

B14: R10-19B2QH (antibody, human IgG1, kappa, V domains shown)
VH: EVKLQESGPGMLQPSQTLSLTCSFSGFSLSTSGMGVSWIRQPSGKGLEWLAHIYWDDDKNFNPSLRSRLIISKDPSRNQVFLEITSVDTADTATYFCARKLYNDYDYILDYWGQGTSVTVSS
VL: DIVMTQAAFSNPVTLGTSASISCRSSKSLLHSNGITYLCWFLQKPGQSPQLLIYQMSNLASGVPDRFSGSGSGTDFTLRISRVEAEDVGVYYCAQNLELWTFGGGTKLEIKR
Take B14: the “Absolute IC50, neutralizing RSV A Long” value in test [1] was 0.0102 mg/L. The “Absolute IC50, neutralizing RSV A2” value in test [2] came out at 0.012 mg/L. For the same molecule, in test [3], the “Absolute IC50, neutralizing RSV B9320” value was determined as 0.021 mg/L.
